This is an account of results in publication PMC11503464, “Copper-61 is an advantageous alternative to gallium-68 for PET imaging of somatostatin receptor-expressing tumors: a head-to-head comparative preclinical study” (Frontiers in Nuclear Medicine, 2024).

Data set [1] can be described thus: Stability of labeling solutions at room temperature by radio-HPLC. The format is physicochemical. Particulars: labeling solution stored at room temperature. The procedure: An aliquot of DOTA-TOC or NODAGA-TOC (3–6 nmol, 1 mg/ml in TraceSelect water) was diluted in 0.25–0.30 ml ammonium acetate (0.5 M, pH 8), followed by the addition of [^61Cu]CuCl2 (30–150 MBq). The reaction mixture was incubated for 15 min at 95°C (DOTA-TOC) or at room temperature (NODAGA-TOC). The pH of the reaction mixture was between 5 and 6. Quality control was performed on a Shimadzu 2020 HPLC system connected to a Berthold radio detector (Flow Star 513).

Data set [2] is classed as physicochemical. To be noted: pH 7.4. The procedure: Briefly, the radiotracer (10 µl, 1 µM) was added to 1 ml of a 1:1 pre-saturated mixture of 1-octanol and phosphate-buffered saline (PBS pH 7.4). The solution was vortexed for 30 min and then centrifuged at 3,000 rpm to achieve phase separation. Aliquots of 0.1 ml from each phase were collected and measured in a γ-counter. The distribution coefficient was calculated as the average of the logarithmic values (n = 3) of the ratio between the radioactivity in the organic and PBS phases. [^68Ga]Ga-DOTA-TOC was used as a reference.

Data set [3] deals with HEK-SST2 cells. Put plainly: Cellular uptake and distribution on intact HEK-SST2 cells. The format is cell-based, human. To be noted: specific uptake, after 4 h at 37°C. The procedure: At the defined time points, the medium was removed, and the cells were washed twice with ice-cold PBS. The cells were then treated twice for 5 min with ice-cold glycine solution (0.05 M, pH 2.8) to detach the cell membrane-bound fraction (acid released). Afterward, the cells containing the internalized fraction were detached using NaOH 1 M at 37°C and collected for measurement. [^68Ga]Ga-DOTA-TOC was evaluated as a reference.

The subject of data set [4] is HEK-SST2 cells. The data set can be described thus: Efflux from HEK-SST2 cells. The format is cell-based, human. The procedure: The efflux was studied after 1 h incubation of the cells with the radiotracer at 37°C and the removal of the unbound fraction and the cell membrane-bound fraction, as described above (acid-wash). The cells were then incubated with fresh medium at 37°C either alone or with a competitor (1,000-fold excess of DOTA-TOC, 2.5 µM/well) for 10, 20, 30, 45, 60, 90, 120, 150, 180, and 240 min. At each time point, the efflux (or retention) was measured after the removal of the medium without or with the competitor and replacement with fresh pre-warmed (37°C) medium alone or with the competitor. At the end of the experiment, the cells were detached using 1 M NaOH at 37°C and collected to determine the remaining cell-associated radiotracer.

The test system of data set [5] is HEK-SST2 xenografts. The data set can be described thus: PET/CT in vivo specificity (DOTA-TOC pre-injection) in HEK-SST2 xenografts. Particulars: PET/CT 1 h p.i. On the set-up: species or system mice. The procedure: The mice were anesthetized with 1.5% isoflurane and dynamic PET scans were acquired from 0 to 1 h post-injection (p.i.). The mice were euthanized by CO2 at 4 h p.i., their bladders were mechanically emptied, and static PET scans were acquired for 30 min. […] The PET images were acquired in list mode using a small-animal PET scanner (β-CUBE, Molecubes, Ghent, Belgium) with a spatial resolution of 0.85 mm and an axial field-of-view of 13 cm. All PET scans were decay corrected and reconstructed into a 192 × 192 × 384 matrix by an ordered subsets maximization expectation (OSEM) algorithm using 30 iterations, a voxel size of 400 µm × 400 µm × 400 µm, and15 min per frame. Computed tomography (CT) data was used to apply attenuation correction on the PET data. The CT was imaged supine, headfirst, using the nanoSPECT/CT™ scanner (Bioscan Inc.). Topograms and helical CT scans of the whole mouse were first acquired using the following parameters: x-ray tube current: 177 µA, x-ray tube voltage 45 kVp, 90 s, and 180 frames per rotation, pitch 1. […] The specificity of the ^61Cu-labeled tracers was assessed in HEK-SST2 xenografts by administering DOTA-TOC (100 µl/200 nmol) 2–5 min pre-injection, followed by the injection of the radiotracer (100 µl/200 pmol/4 MBq). […]

Data set [6] relates to HEK-SST2 xenografts. Particulars: female, athymic nude-Foxn1^nu/Foxn1^+, mouse, in vivo, 200 pmol, 1 h.
The conditions of data set [7]: in vivo; cited from earlier work.
For data set [8] the following is noted: mouse, in vivo; cited from earlier work.

Turning to `C[C@@H](O)[C@@H]1NC(=O)[C@H](CCCCN)NC(=O)[C@@H](Cc2c[nH]c3ccccc23)NC(=O)[C@H](Cc2ccc(O)cc2)NC(=O)[C@@H](NC(=O)[C@@H](Cc2ccccc2)NC(=O)CN2CCN(CC(=O)O)CCN(CC(=O)O)CCN(CC(=O)O)CC2)CSSC[C@@H](C(=O)N[C@H](CO)[C@@H](C)O)NC1=O` [[^61Cu]Cu-DOTA-TOC] [metal not drawn], the “Radiochemical purity (%) 2 h” value in data set [1] (2 h after end of synthesis) is 96 ± 1%. In data set [1] (4 h after end of synthesis), the “Radiochemical purity (%) 4 h” value was found to be 95 ± 1%. The “log D(O/PBS pH 7.4)” value in data set [2] is reported as −2.81 ± 0.29. The “Cellular uptake (surface bound + internalized)” value with HEK-SST2 cells [3] is reported as 78.3 ± 1.3%. Also, the “Efflux plateau in the absence of a competitor” value in the data set with HEK-SST2 cells [4] (after 2 h, 37°C, no further increase at 4 h) is listed as “approximately 40%”. Besides, the Efflux with competitor in the data set on HEK-SST2 cells [4] (after 4 h at 37°C, DOTA-TOC (competitor) added to the medium) stood at 80%. In addition, in the data set with HEK-SST2 xenografts [5], the “Abdominal uptake (liver and intestine) after high excess DOTA-TOC pre-injection” value is reported as “not suppressed”. In addition, in the data set on HEK-SST2 xenografts [6], the Heart uptake is 0.63 ± 0.07 %IA/g, the Intestine uptake stood at 2.94 ± 0.15 %IA/g and the Liver uptake worked out at 3.59 ± 0.49 %IA/g.

On to `C[C@@H](O)[C@@H]1NC(=O)[C@H](CCCCN)NC(=O)[C@@H](Cc2c[nH]c3ccccc23)NC(=O)[C@H](Cc2ccc(O)cc2)NC(=O)[C@@H](NC(=O)[C@@H](Cc2ccccc2)NC(=O)CN2CCN(CC(=O)O)CCN(CC(=O)O)CCN(CC(=O)O)CC2)CSSC[C@@H](C(=O)N[C@H](CO)[C@@H](C)O)NC1=O` [[^68Ga]Ga-DOTA-TOC] [[^68Ga]Ga-DOTA-Tyr^3-octreotide, metal not drawn], for which the “log D(O/PBS pH 7.4)” value in data set [2] is −3.18 ± 0.11. Further, the “Cellular uptake (surface bound + internalized)” value in the data set with HEK-SST2 cells [3] turned out to be 79.0 ± 3.1%. Moreover, in the data set on HEK-SST2 xenografts [6], the Adrenal uptake worked out at 2.57 ± 0.78 %IA/g, the Blood uptake is reported as 0.63 ± 0.09 %IA/g, the Bone uptake stood at 0.49 ± 0.07 %IA/g and the Heart uptake came to 0.27 ± 0.03 %IA/g. In the data set with HEK-SST2 xenografts [6], this molecule registered an Intestine uptake of 1.39 ± 0.28 %IA/g, a Kidneys uptake of 8.37 ± 0.84 %IA/g, a Liver uptake of 0.58 ± 0.07 %IA/g and a Lung uptake of 1.68 ± 0.32 %IA/g. In the data set on HEK-SST2 xenografts [6], the Pancreas uptake is 4.77 ± 1.16 %IA/g, the Pituitary uptake is listed as 3.29 ± 0.63 %IA/g, the SST2-tumor uptake was found to be 6.64 ± 1.11 %IA/g and the Stomach uptake was 3.73 ± 0.36 %IA/g. Moreover, in data set [7], the Effective dose was 0.021-0.0257 mSv/MBq.

Take “[^68Ga]Ga-DOTA-Tyr^3-octreotate [[^68Ga]Ga-DOTA-TATE]”: the Effective dose in data set [7] is reported as 0.021-0.0257 mSv/MBq. For the same molecule, in data set [8], the Kidney dose is recorded as 9.01 × 10^−2 mGy/MBq and the Total-body absorbed dose is given as 1.27 × 10^−3 mGy/MBq.
